Measured values published in patent publication US20120102593.

Biological target: histone H4 (rice, extracted from leaves)

B1: histone deacetylase OsHDT1 (protein)
chain: MEFWGLEVKPGQTVKCEPEDERFLHLSQAALGESKKGSDNAVMYVKTDDQKLVIGTLSADKFPQIQFDLVFDKEFELSHTSKTASVFFSGYKVSQPAEEDEMDFDSEEVEDEEEEEKIIPAPRANGKVEGKENEQKKQGKTDSSASKSKAAVNDDDDDDDSAEDDSQDEDLSPEDDDDDSSEDDSSEDDEDESDEEDTPKKPETGKRKVAEIVLKTPSSDKKAKIATPSGQKTGDKKGVHVATPHPAKQASKTPVNDKSKEKSPKSGGGSISCKSCSKTFNSEMALQSHSKAKHPAK
With B1 the “Western blotting of histone extracted from transgenic and wild-type parent and hybrid OsHDT1 plants, using commercial antibodies against histone modifications” value was “HDT1 was capable of deacetylating histone and as such is a histone deacetylase mainly acting at H4K16 site”.
